Test results: PMC6364316 (Vaccine, 2018)

Key:
gp120 [1] = target: T1, gp120 (HIV-1, strain  for this …, UniProt Q75760); assay: ELISA
gp120 [2] = target: T1, gp120; assay: SPR

B1: IgG b12 (antibody, V domains shown)
VH: QVQLVQSGAEVKKPGASVKVSCQASGYRFSNFVIHWVRQAPGQRFEWMGWINPYNGNKEFSAKFQDRVTFTADTSANTAYMELRSLRSADTAVYYCARVGPYSWDDSPQDNYYMDVWGKGTTVIVSS
VL: EIVLTQSPGTLSLSPGERATFSCRSSHSIRSRRVAWYQHKPGQAPRLVIHGVSNRASGISDRFSGSGSGTDFTLTITRVEPEDFALYYCQVYGASSYTFGQGTKLERK
**Q.** What does the source list for B1?
**A.** 10 times EC50 (gp120 [1]): 1 µg/mL; Kd (gp120 [2]): 36 ± 2 nM; koff (gp120 [2]): 0.0052 s⁻¹
